Source: the DeepSol protein solubility set

Experiment: soluble on expression in E. coli; label from the status in PepcDB or PDB records

| Sequence | soluble on expression in E. coli |
| --- | --- |
| MSLSKRAYFGTDGIRGQANKHPMTAEVALRVGLAAGKLFRSQDERRHLVVIGKDTRLSGYMIEPALVAGLTSVGLDVRLFGPLPTPAVAMMTRSMRADLGIMISASHNSFADNGIKLFGPDGYKLSDAQELGIEALMDQGLQEGLAAPRELGRVKRIDDAQARYVEIVKATFPRHLNLSGLRIVIDCANGAAYKVAPTALYELGAEVITLGVSPDGTNINEECGSTHPEAMAKMVREYRADIGIALDGDADRLVICDEKGVVVDGDQIMAIIAAASHKAGTLKGGGVVATVMSNLGLERQLNTMGLSLERTAVGDRYVMQRMREGGFNVGGEQSGHLILSDFSTTGDGLIAALQVLAVMVETDKPMSALGRQFEPVPQLLENVRFVGGKPLEAAAVKEAIADGEAQLNGAGRIVVRASGTEPLIRIMAEGDDPALVKKVVKSIASAVKEGHHHHHH | soluble |
| MFEWIKTFIAVYETKNFSTAAKQLYISQPTVSLQIKKLEQHFSIKLFYRNGKQSVIPTKEADFLYPKMLSIIESLTTSFAQAAEKENFKEDCIIASSNTVAIYLLPDIMESLVTAFPLINFSIQLMNSNEVVDMVQNNHAHIGLIEKPIETKNLHKEIVYEDQLVLAGDAASKFWLLREKNSGLRFFNELYLNEHSINLPIIELNNNEVLLQLLKNNIGQSIVSRLSISDEIPWQPIDQSFASRKIFIVQTDHHANTSFSEVYNRIVEKIRERQT | not soluble |
| MTPLKRYQKDIAEHGFQRDEAQHQAVVALDKLYHDIVEFQSAPIPQLSKWQKLMGKKVEMPQPPKGLYFWGGVGRGKTYLMDAFFDALPTDRKMRVHFHRFMYRVHDELKRLGEVENPLSKVADLFKQEADIVCFDEFFVSDITDAMILATLLQEMFKRQMVLVATSNIEPQNLYRNGLQRARFLPAIDMILARCHVLNVDSGVDYRLRTLEQAEIYHYPLDEQASINLNTYYQQLTAERKSVAHKIDINHRQISVIEASDGVLHASFEQLCQTARSQNDYIELSRIYHTVLLADVRQMNRKIDDAARRFIALVDEFYERNVKLIISAEVEMDALYSEGQLEFEFKRCVSRLTEMQSHEYLAREHLALEHHHHHH | soluble |
| MARNSTLTNLFLSTKRNMGRLISHIVKADDIDDIVQETFIKTYEADLKQEIKYVRSYMLKTAKNLALNHVARWDNKYNDSLEDFSQPPVQLTSGKVEDDYESKEQFLFFCRATDQLSGSVRKCFILKKVYGLSQKEIASYLNLSESTVEKHIAQGLLKSTKYIKRMNHGHSVKGAKQNHQVHSLQVKKTVLK | not soluble |
| MTNLELSGSQSYLNDESTANLSSLAGKFLVQFWGVRGLIPTPSSNTSRYGGNTACVEMQVAGKRLIFDGGTGLRILGKAWQHLQQPLEAHLFFTNSQSNRIQGFPFFAPAFIAGNCFHIYGGAASNGASIKQCLCDQMLQPHFPYPLQVMQSELQFYPLTPDSEVKLDDVTIRTALINQTQRSIGYRVTWQEYSVAYVTDLNMSAEQGEREQVLQIIQDVDLLIANATYTPPTSHDHESVDLLWQAAVEMAQKAGVRKLIISHHHPDDHDDFLDQVEKEVQSTFSDALLACEGLALPVFLEHHHHHH | soluble |
| MYMASISLKKGQKVDLTKTNPGLSKVLVGLGWDTNRYDGQNDFDLDVSIFLVGANGKVSGAEDFVFYNNPKGANGAVEHLGDNRTGEGEGDDEAIKVDLKNVPAHIERICFTITIYDGEGRSQNFGQVSNSFVRILDEEKNAELIRYDLGEDFSIETAVVVGELYRHAGDWKFNAIGSGFQGGLASLCNNFGLDVE | not soluble |
| MSKVKIELFTSPMCPHCPAAKRVVEEVANEMPDAVEVEYINVMENPQKAMEYGIMAVPTIVINGDVEFIGAPTKEALVEAIKKRL | soluble |
| MSLAAELLIATGEYAPWTGEQLPDGGYVNRVVREAFAREGVQVRFAYMPWARALEALRNGNAQASSFWYDDPVKAKEFLYSAPISEHRELLFHRKDVTVPPWRKLRDLRGLRFGATHGYTYTAEFRQLMKQGALNVEEANDDKINLLKMLAGRIELFPLDEFTGWQLLTSDAFPRGAHDLVTTEARPFSIQYGHLLMPRSARNEQLMARFNAGLARLRADGTLERFRLDLYRGSGMGEGHHHHHH | soluble |
| MAHHHHHHMPETTHVTNDAAVPQKHIVEKPHLMDLFRSSASFAKIIAYLQGCSDSVNGTPRSARMVQKASELHPTVRFFVETFFPHLHKIVEEVPLQDMKKQRFGNRAFRVFHERLEADVGGLMQQLVLTLPARSGERSEEEQRCLAVELAEYIKDSFGNSTRIDYGTGHELHFFVVIMICLEECGDAGGTLQAEPTTIVSLNFPQPAPVLVDKRDRVCRLRQGMVFDVFGAYLTFMRRLQKHYHLEPAGSHGVWGLDDYHHLPFIFGAAQLIGKEVPHKTDDSGNGKGYGAILPKHVCEENAVRLHADEYFYFAQVAWVRENKTGPFFEHSSMLYNISGVESWQKIYTGMVKMYAAEVLSKFNVVQHLLFGTHLPWPPDV | soluble |
| MSLELTISELKENFWGEYEYLDGGYMAARLAVLEHLEQIKRQSGIIIIREITEEYFAPVGNWHIRETVRNAMKNRLGKYDNLNLAISEVNKKLKAKINLFELRTINSLINQKSIYDFFKEGHHHHHH | not soluble |
| MLLAHISDTHFRSRGEKLYGFIDVNAANADVVSQLNALRERPDAVVVSGDIVNCGRPEEYQVARQILGSLNYPLYLIPGNHDDKALFLEYLQPLCPQLGSDANNMRCAVDDFATRLLFIDSSRAGTSKGWLTDETISWLEAQLFEGGDKPATIFMHHPPLPLGNAQMDPIACENGHRLLALVERFPSLTRIFCGHNHSLTMTQYRQALISTLPGTVHQVPYCHEDTDPYYDLSPASCLMHRQVGEQWVSYQHSLAHYAGPWLYDENISCPTEER | soluble |
| MVATEKKFVLTHIFKNVSKMKDSDFLYSPEENLFNVPWFMLIARKDDHFGVFLHCQKINEAGPTWSVDTQNTIRVKTLSASKVSSEIFKHKFEKNEGWGYFKFISWDTLTNDYLIDDCIIVEITVKITKMTGIPKKVLRSFDKSAEEFSDVVLEVGGKKFYVLKKFLASHSTYFNALLLGKPEMSEVTIQDTSSVDFQNLLEVLYGEPAIDEDTIDGILTLAHKFTMPLPIQKCEEFLIEKSEKSVKEKLKLVKKYQLKSLKTHCLSKINTPYGINALMPFDHNDMDPEVVMALLKKSLATDEFYLDCIMRFTVICLIFITVGLII | not soluble |
| MSLRMKVFEIVKSSTENEIVRIHVELPRLKYLKDSNFEEKFNSEVEEKIKKFVNEVKGIAQEDHDKDVQHTPYEAYVSVDVRYEGKDFLSFVVYYYQFTGGAHGITFFETYNIDLKNSKVLKLYDIIKEEAEDTIKSNILKQIEQNNTDFFPDAPMNILKDDIFSREFTISKDGLIIMYPHYDLAPYASGMPEFVIPWNVIEKFLKYDILSLLKEGHHHHHH | soluble |
| MELTAFRHQVGGHFGILLCNGHVAKPSNLREMAFYKVMNSELKHFSPAFCKEVDVRATVNPSTGQIVVETLEKLDCHKKKSSSKHERSSTGFRQTTDGRVTVDTEKQWNPWAAGCQCKVVERMLKELEPTPFLLLENVVAHYTRPCVLDLKIGTRQHGDDASESKRHRQLMKCRHSTSATLGVRVVGMQLYEAETKSYSYVEKQEGRRIDAAGFRGYVKRFIKCCGRSRAARIRQKLSKLRSLLAEFEGYRFFSASILIAFDAEAADSSSDDAVKVCIIDFAHSTFSGFFEDLAYSGADEGCLLGLDSIVEAMEPIVSKDPVTPSSSFEKKK | not soluble |
| REIADNTYIVLGTMTLNDFNEYFETDLESDNVDTIAGFYLTGVGTIPSQEEKEHFEVESNGKHLELINDKVKDGRVTKLKILVSE | soluble |
| CLAEGTRIFDPVTGTTHRIEDVVYGRKPIHVVAAAKDGTLHARPVVSWFDQGTRDVIGLRIAGGAIVWATPDHKVLTEYGWRAAGELRKGDRVAVRDVETGELRYSVIREVLPTRRARTFDLEVEELHTLVAEGVVVHN | soluble |
| MSLCLPTIRKIAIIGAGPSGLVTAKALLAEKAFDQVTLFERRGSPGGVWNYTSTLSNKLPVPSTNPILTTEPIVGPAALPVYPSPLYRDLQTNTPIELMGYCDQSFKPQTLQFPHRHTIQEYQRIYAQPLLPFIKLATDVLDIEKKDGSWVVTYKGTKAGSPISKDIFDAVSICNGHYEVPYIPNIKGLDEYAKAVPGSVLHSSLFREPELFVGESVLVVGGASSANDLVRHLTPVAKHPIYQSLLGGGDIQNESLQQVPEITKFDPTTREIYLKGGKVLSNIDRVIYCTGYLYSVPFPSLAKLKSPETKLIDDGSHVHNVYQHIFYIPDPTLAFVGLALHVVPFPTSQAQAAFLARVWSGRLKLPSKEEQLKWQDELMFSLSGANNMYHSLDYPKDATYINKLHDWCKQATPVLEEEFPSPYWGEKERSIRENMWSIRAKFFGIEPPKEGHHHHHH | soluble |
| SETPEVPVGSLIDFGPEAPTSSPLEAPPPVLQDGDGSLGDGASESETTESADSENDMGESPSHPSWDQDRRSSSNESFSSNQSTESTQDEETLALRDFMRGYVEKIFSGGEDLDQEEKAKFGEYCSSENGKGREWFARYVSAQRCNSKCVSEATFYRLVQSFAVVLFECHQMDDFGPAKNLMTMCFTYYHIGKPQLLPPESREKPAGSIDSYLKSANSWLAEKKDIAERLLKNTSARTENVKGFFGGLETKLKGPLARRNEEDENKPQEKRPRAVTAYSPEDEKKGEKIYLYTHLKQQPIW | soluble |
| MGSDKIHHHHHHMTRSVKRVAAIHDLSGFGRASLTAIIPIMSYMGIQVCPMPTAVLSTHTTDFHEYSFVDLTDSMQDFMNHWKKINLEFDAIYTGFLGSPRQVKIISDFVKEFSSDSTLVLIDPVMGDEGELYQTMNSEIVRSMRELIKSADIITPNFTEAAYLLDKDYNLELNEETIKEWILELANMGPDIVIMTSVPENKDKSTISVIAYEKKLNKFWKITSEYIPVSYPGTGDSFASAILGRILKGDNLPQAVGRGMQFITSAIKESYGFDYPTREGILIEKSLEVLNLPFMNGNYKLI | not soluble |
| MTEHPRAHTAHLRTARLELTPLDPAADARHLHHAYGDEEVMRWWTRPACADPAETERYLTSCAAAPGARLWTIRAPDGTVPGMAGLLGGTDVPGLTWLLRRDSWGHGYATEAAAAVVGHALEDGGLDRVEAWIEAGNRRSLAVAARVGLTERARLAQHYPHRPGPHEMVVLGKARAEEPLTTLAVITELPVRDVAATLRLVEAALGARTAFAIGDPPEFAEAALTPWSAGPRFRLAAVPGPGPVEPVRLHLDAAGTADSLHRRAVDAGARVDGPPVRRPWGRSEFVITLPEGHELTVSAPV | soluble |
| MQEKPQEPKVVGVEILEKSGLDIKKLVDKLVKATAAEFTTYYYYTILRMHLTGMEGEGLKEIAEDARLEDRLHFELMTQRIYELGGGLPRDIRQLADISACSDAYLPENWKDPKEILKVLLEAEQCAIRTWKEVCDMTYGKDPRTYDLAQRILQEEIEHEAWFLELLYGRPSGHFRRSSPGNAPYSKK | soluble |
| MEKIGETMAKLGQNTRVNSDQLIQTILADPEVASFISQHHLSQEQINLSLSKFNQFLVERQKYQLKDPSYIAKGYQPILAMNEGYADVSYLETKELVEAQKQAAISERIQLVSLPKSYRHIHLSDIDVNNASRMEAFSAILDFVEQYPSAEQKGLYLYGDMGIGKSYLLAAMAHELSEKKGVSTTLLHFPSFAIDVKNAISNGSVKEEIDAVKNVPVLILDDIGAEQATSWVRDEVLQVILQYRMLEELPTFFTSNYSFADLERKWATIKGSDETWQAKRVMERVRYLAREFHLEGANRRLEHHHHHH | soluble |
| MSEQSFSNANKGSETLNGSAASFVSHKRFYDDTNFPKGFKRSGDFTSKEAELLELHGHAMKNLAEGKTLPVTADEAQFVEVIKGNIAPSSLLEHIWLKYRKLARGKPFYAVVGTVHLPATKPEVEVEPEAAFDVDVEIEDDVQDEAEPEDKA | soluble |
